{"source": "the RNAGym collection of RNA variant scans (doi:10.1021/acssynbio.7b00057)", "parents": {"B1": {"name": "Pistol ribozyme (parent)", "chain": "GGGUCGUUGUUCCAUAAUCGCGUGGAUAUGGCACGCAAGUUUCUACCGGGCACCGUAAAUGUCCGACUGGAGCCGUUCGGGCGGCUAUAAACAGACCUCAGGCCCGAAGCGUGGCGGCACCUGCCGCCGGUGGUAAAAAAGAUCGGAAGAGCACACGUCU"}}, "data": [{"variants_of": "B1", "experiment": "aptazyme ON/OFF ratio, guanine; higher = stronger switching; co-transcriptional cleavage with and without guanine", "values": [{"variant": "U7C U8G G9U U10A U11C C12G", "aptazyme ON/OFF ratio": 1.2}, {"variant": "U8G G9A U10A C12G C13A", "aptazyme ON/OFF ratio": 1.22}, {"variant": "U7A U8C G9A C13G", "aptazyme ON/OFF ratio": 1.04}, {"variant": "U7G U8C U10C U11G C12U", "aptazyme ON/OFF ratio": 1.3}, {"variant": "U7G G9C U10G U11A", "aptazyme ON/OFF ratio": 1.37}, {"variant": "U7G G9C U10A U11C", "aptazyme ON/OFF ratio": 1.17}, {"variant": "U7G U8C G9C C12A C13U", "aptazyme ON/OFF ratio": 1.16}, {"variant": "U7G G9U U10A U11G C12A C13A", "aptazyme ON/OFF ratio": 1.11}, {"variant": "U7A G9A U10A U11C C13G", "aptazyme ON/OFF ratio": 1.1}, {"variant": "U7C U8G U10A U11A C12U C13G", "aptazyme ON/OFF ratio": 1.12}, {"variant": "U7C U8G G9C U10A U11C C12G C13U", "aptazyme ON/OFF ratio": 1.3}, {"variant": "U7C U8C G9C U10G U11G C12A C13U", "aptazyme ON/OFF ratio": 1.09}, {"variant": "U7G U8C G9A U10C C12A C13U", "aptazyme ON/OFF ratio": 1.19}, {"variant": "U7C U8C G9C U10G U11C C13G", "aptazyme ON/OFF ratio": 1.08}, {"variant": "U8A G9C U10C U11G C12G C13G", "aptazyme ON/OFF ratio": 1.12}, {"variant": "U7C U8G G9U U10A U11A C12U C13G", "aptazyme ON/OFF ratio": 1.08}, {"variant": "U8G G9C U10A U11C C12G C13G", "aptazyme ON/OFF ratio": 1.05}, {"variant": "U7A U8A G9A U10C C12A", "aptazyme ON/OFF ratio": 1.1}, {"variant": "U7C U8G G9U U10A U11C", "aptazyme ON/OFF ratio": 1.04}, {"variant": "U7C U8G G9U U10G C12U C13A", "aptazyme ON/OFF ratio": 1.17}, {"variant": "U7A U8A G9C U10C U11G C12A C13U", "aptazyme ON/OFF ratio": 1.03}, {"variant": "U7C U8G G9A U10C U11A C12G C13A", "aptazyme ON/OFF ratio": 1.07}, {"variant": "U8G G9U U10A U11G C12U", "aptazyme ON/OFF ratio": 1.24}, {"variant": "U7A U8G G9U U10G C12U C13G", "aptazyme ON/OFF ratio": 1.24}, {"variant": "U7G U8G G9A U11G C12U C13U", "aptazyme ON/OFF ratio": 1.4}, {"variant": "U8C G9A U11C", "aptazyme ON/OFF ratio": 1.09}, {"variant": "U7A G9A U10A U11C C12U C13G", "aptazyme ON/OFF ratio": 1.18}, {"variant": "U8G U10C C12G C13A", "aptazyme ON/OFF ratio": 1.13}, {"variant": "G9C U10C C13A", "aptazyme ON/OFF ratio": 1.06}, {"variant": "U10C U11A C12G C13G", "aptazyme ON/OFF ratio": 1.25}, {"variant": "U7G U8C U10A U11G C12A C13G", "aptazyme ON/OFF ratio": 1.13}, {"variant": "U7A U8G U10A U11G C12G C13A", "aptazyme ON/OFF ratio": 1.16}, {"variant": "U7A U8C G9A U10A U11G C12U C13U", "aptazyme ON/OFF ratio": 1.31}, {"variant": "U7C U8C U11G C13A", "aptazyme ON/OFF ratio": 1.24}, {"variant": "U7G U8G G9A U10G U11A C12G C13A", "aptazyme ON/OFF ratio": 1.13}, {"variant": "U7C U8A G9U U10C U11C C12A C13A", "aptazyme ON/OFF ratio": 1.06}, {"variant": "U7A U8A G9A U10G U11C C12U C13G", "aptazyme ON/OFF ratio": 1.19}, {"variant": "U7C U8A G9A U10G U11A C12U C13G", "aptazyme ON/OFF ratio": 1.12}, {"variant": "U7C U8G G9U U10C C12A C13A", "aptazyme ON/OFF ratio": 1.41}, {"variant": "U7A U8G G9A U10C C13U", "aptazyme ON/OFF ratio": 1.25}, {"variant": "U7A U8A G9C U10C U11C C12U C13A", "aptazyme ON/OFF ratio": 1.01}, {"variant": "U7G G9C U10A U11A C12G C13A", "aptazyme ON/OFF ratio": 1.14}, {"variant": "U7A U8G G9C U10C U11G C12G C13A", "aptazyme ON/OFF ratio": 1.18}, {"variant": "U7G U8C G9C U10C U11C C12U C13U", "aptazyme ON/OFF ratio": 1.03}, {"variant": "G9C C13G", "aptazyme ON/OFF ratio": 1.03}, {"variant": "U8C G9A U10G U11C C12G C13U", "aptazyme ON/OFF ratio": 1.2}, {"variant": "U7G U8A G9C U10A C13A", "aptazyme ON/OFF ratio": 1.03}, {"variant": "U7A U8A G9C U10C U11C C12G C13U", "aptazyme ON/OFF ratio": 1.03}, {"variant": "G9U U10A C13U", "aptazyme ON/OFF ratio": 1.54}, {"variant": "U7A U8C G9A U10A C12A", "aptazyme ON/OFF ratio": 1.26}, {"variant": "U7G U8C U10C U11C C13A", "aptazyme ON/OFF ratio": 1.04}, {"variant": "U7A U8A G9C U10A U11G C12G C13A", "aptazyme ON/OFF ratio": 1.18}, {"variant": "U7A U8G G9A U10G U11C C12A", "aptazyme ON/OFF ratio": 1.45}, {"variant": "U7G U8A G9A U10G C12G C13G", "aptazyme ON/OFF ratio": 1.09}, {"variant": "U7G G9A U10A C12G", "aptazyme ON/OFF ratio": 1.18}, {"variant": "U7G U8G U10G U11A C13U", "aptazyme ON/OFF ratio": 1.24}, {"variant": "U7A G9A U10C U11C C12U", "aptazyme ON/OFF ratio": 1.03}, {"variant": "U7A U8A G9C C13A", "aptazyme ON/OFF ratio": 1.15}, {"variant": "U7A G9U U11G C12G C13G", "aptazyme ON/OFF ratio": 1.32}, {"variant": "U7G U8C U10G U11A C12G C13U", "aptazyme ON/OFF ratio": 1.23}, {"variant": "U8G G9A U11G C13A", "aptazyme ON/OFF ratio": 1.07}, {"variant": "U7C U8A U10C U11C C12U C13U", "aptazyme ON/OFF ratio": 1.06}, {"variant": "U7A U8A U10G U11C C12A C13U", "aptazyme ON/OFF ratio": 1.34}, {"variant": "U7C U8G U10C U11C C12G C13A", "aptazyme ON/OFF ratio": 1.14}, {"variant": "U7G G9A U10G U11A C12A", "aptazyme ON/OFF ratio": 1.09}, {"variant": "U11A C12U C13G", "aptazyme ON/OFF ratio": 1.37}, {"variant": "G9U U10A U11G C12A C13G", "aptazyme ON/OFF ratio": 1.37}, {"variant": "U8A G9C U10C U11A C13G", "aptazyme ON/OFF ratio": 1.07}, {"variant": "U7G U8C G9C U10A U11C C12A C13A", "aptazyme ON/OFF ratio": 1.28}, {"variant": "U8C G9U U10A U11A C12A C13A", "aptazyme ON/OFF ratio": 1.28}, {"variant": "U7A U8C U10A U11C C12G", "aptazyme ON/OFF ratio": 1.1}, {"variant": "U7C U8G G9A U10G C12U C13U", "aptazyme ON/OFF ratio": 1.26}, {"variant": "U8C G9U U10C C13G", "aptazyme ON/OFF ratio": 1.04}, {"variant": "U7A U8G U10G U11C C12G C13U", "aptazyme ON/OFF ratio": 1.56}, {"variant": "U7G U8A C12G C13U", "aptazyme ON/OFF ratio": 1.46}, {"variant": "U7C U8C G9A U10A U11A C12A", "aptazyme ON/OFF ratio": 1.5}, {"variant": "U7C U8A G9U U11C C12U C13U", "aptazyme ON/OFF ratio": 1.21}, {"variant": "U8G G9C U10C U11G C12G C13G", "aptazyme ON/OFF ratio": 1.11}, {"variant": "U7G U8A U10A C12A C13G", "aptazyme ON/OFF ratio": 1.3}, {"variant": "U7A G9A U10C C12G", "aptazyme ON/OFF ratio": 1.34}, {"variant": "U7G U8G G9C U10A U11A C12G C13U", "aptazyme ON/OFF ratio": 1.02}, {"variant": "U7C U8C U10C U11C C12U C13A", "aptazyme ON/OFF ratio": 1.31}, {"variant": "U8C G9C U10C U11A C12U", "aptazyme ON/OFF ratio": 1.02}]}]}
